US20210169980A1 (HONG KONG UNIVERSITY OF SCIENCE AND TECHNOLOGY, published 2021)
Where two headings read alike, the source gives them in different places.

How the values were obtained:
[1] = target: GABARAP R67E; assay: ITC
[2] = target: LC3A R70E; assay: ITC
[3] = target: T1, LC3A (human, UniProt Q9H492 1-121); assay: ITC
[4] = target: T2, LGG-2 (C. elegans, UniProt Q23536 1-130, limits assumed); assay: ITC (table of Kd values)
T2 construct: also called worm orthologue of LC3
T2 sequence (looked up): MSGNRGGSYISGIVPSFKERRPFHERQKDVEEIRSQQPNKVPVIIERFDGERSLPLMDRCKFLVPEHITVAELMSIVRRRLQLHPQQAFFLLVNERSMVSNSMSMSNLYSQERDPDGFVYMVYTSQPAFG

[5] = target: T3, LC3B (human, UniProt Q9GZQ8 1-125); assay: ITC (table of Kd values)
[6] = target: T4, LGG-1 (C. elegans, UniProt Q09490 1-123, limits assumed); assay: ITC (table of Kd values)
T4 construct: Purified protein in the ITC; also called worm orthologue of GABARAP

[7] = target: T1, LC3A; assay: ITC; remark: listed apart in the source
[8] = target: T3, LC3B; assay: ITC
[9] = target: T5, LC3C (human, UniProt Q9BXW4 1-126); assay: ITC
[10] = target: T6, GABARAP (human, UniProt O95166 1-117, limits assumed); assay: ITC
T6 construct: elsewhere only "mammalian"

[11] = target: T7, GABARAPL2 (human, UniProt P60520 1-117, limits assumed); assay: ITC
T7 construct: also called GATE-16

[12] = target: T6, GABARAP; assay: ITC; remark: listed apart in the source
[13] = target: T6, GABARAP; assay: ITC; ratio of the binding to GABARAP against that to LC3A
[14] = target: T2, LGG-2; assay: ITC
[15] = target: T1, LC3A; assay: ITC; remark: listed apart in the source
[16] = target: GABARAP R67E; assay: ITC; remark: listed apart in the source
[17] = target: LC3A R70E; assay: ITC; remark: listed apart in the source
[18] = target: T1, LC3A; assay: ITC; remark: listed apart in the source
[19] = target: [..]1 (human, UniProt Q9H0R8 1-117); assay: competition-based ITC (asterisk; legend paragraph 51)
[20] = target: T7, GABARAPL2; assay: as above
[21] = target: T3, LC3B; assay: ITC; remark: listed apart in the source
[22] = target: T5, LC3C; assay: ITC; remark: listed apart in the source
[23] = target: T6, GABARAP; assay: ITC (table of Kd values)
[24] = target: T6, GABARAP; assay: ITC; remark: listed apart in the source
[25] = target: T4, LGG-1; assay: ITC
[26] = target: T6, GABARAP; assay: ITC; without the C-helix extension (LIR-S, aa 448-461)

T4 sequence (Q09490 whole entry): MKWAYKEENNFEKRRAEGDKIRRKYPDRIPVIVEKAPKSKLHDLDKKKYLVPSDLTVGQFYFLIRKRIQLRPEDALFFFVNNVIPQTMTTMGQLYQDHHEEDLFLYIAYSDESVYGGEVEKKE
T6 sequence (O95166 whole entry): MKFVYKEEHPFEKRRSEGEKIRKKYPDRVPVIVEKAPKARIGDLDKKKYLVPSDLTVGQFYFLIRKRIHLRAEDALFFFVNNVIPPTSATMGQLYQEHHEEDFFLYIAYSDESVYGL
T7 sequence (P60520 whole entry): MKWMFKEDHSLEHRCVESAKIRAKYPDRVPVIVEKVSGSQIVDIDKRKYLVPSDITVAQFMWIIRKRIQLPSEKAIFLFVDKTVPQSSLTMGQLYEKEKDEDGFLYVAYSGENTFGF
Sequence of GABARAP R67E (chain, as listed by the source R67E R67E limits assumed): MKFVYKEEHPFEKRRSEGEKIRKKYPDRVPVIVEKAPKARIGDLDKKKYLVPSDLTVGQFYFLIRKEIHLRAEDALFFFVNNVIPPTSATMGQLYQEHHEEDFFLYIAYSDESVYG
Sequence of LC3A R70E (chain, as listed by the source R70E R70E limits assumed): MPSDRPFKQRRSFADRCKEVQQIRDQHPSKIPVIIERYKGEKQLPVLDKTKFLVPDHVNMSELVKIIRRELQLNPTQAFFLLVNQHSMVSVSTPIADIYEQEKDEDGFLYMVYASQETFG
T5 sequence (Q9BXW4 1-126, form in doubt): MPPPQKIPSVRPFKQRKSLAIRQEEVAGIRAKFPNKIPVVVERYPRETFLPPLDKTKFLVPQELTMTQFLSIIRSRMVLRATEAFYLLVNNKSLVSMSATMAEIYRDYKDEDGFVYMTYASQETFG
Sequence of [..]1 (Q9H0R8 whole entry): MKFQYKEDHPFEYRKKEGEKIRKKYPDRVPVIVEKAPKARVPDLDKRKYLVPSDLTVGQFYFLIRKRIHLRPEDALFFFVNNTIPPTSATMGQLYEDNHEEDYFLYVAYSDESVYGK

In the case of PEDDWTEFSSEEIREARQAAASHAPS [AnkG LIR (AnkG WT peptide, rat 480 kD AnkG residues 1985-2010)], the Kd [1] is reported as 114 nM, the binding result [2] is reported as “no binding” and the Kd [3] is reported as 546 nM. For the same binder, the Kd [4] was 210 nM, the Kd [5] was 339 nM and the Kd [6] was 1.6 nM. For the same binder, the Kd [7] was 546 nM, the Kd [8] was 339 nM and the Kd [9] was 2930 nM. For the same binder, the Kd [10] was about 2.6 nM and the Kd [11] was about 40 nM.

PEDDWTEFSSEEIREQRQAAASHAPS (also called AnkG A2000Q) [A2000Q] gave a Kd [12] of 741 nM and a Kd [3] of 8200 nM.

B1: AnkG E1991R (modified from rat 480 kD AnkG residues 1985-2010) (peptide)
peptide: PEDDWTRFSSEEIREARQAAASHAPS
notes: also called AnkG ER; Glu1991Arg AnkG LIR
Binder B1 has a Kd [12] of 6.9 nM, a Kd [3] of 7190 nM and a Kd [4] of 8470 nM. For the same binder, the Kd [6] was 8.5 nM, the “selectivity between GABARAP and LC3A” value [13] was about 1000 fold and the “fold weaker binding against LGG-1” value [14] was about 1000 fold. For the same binder, the “fold lower affinity against AnkG LIR WT” value [15] was about 10 fold.

With PEDDWTEFSSERIREARQAAASHAPS (also called AnkG E1996R) [E1996R] the Kd [12] was 398 nM and the Kd [3] was about 100000 nM.

In the case of PEDDWTEFSSEEQREARQAAASHAPS (also called AnkG I1997Q) [I1997Q], the Kd [12] is reported as 68 nM and the Kd [3] is reported as about 12500 nM.

B2: W1989R (peptide)
peptide: PEDDRTEFSSEEIREARQAAASHAPS
notes: Untagged peptide used in ITC; m22 is its mCherry fusion; also called AnkG W1989R; AnkG WR
In the case of B2, the Kd [12] is reported as about 12800 nM, the binding result [3] is reported as “no binding” and the binding result [4] is reported as “no binding”. B2: no binding [5]; no binding [6].

VEEEWVIVSDEEIEEARQKAPLEITEY [AnkB LIR (AnkB WT peptide, human 440 kD AnkB residues 1588-1614)] gave a Kd [5] of 4.2 nM, a Kd [6] of 1.2 nM and a Kd [16] of 56 nM. It also gave a Kd [17] of 860 nM, a Kd [18] of 3.6 nM and a Kd [19] of 0.29 nM. The Kd [20] was 0.21 nM, the Kd [21] was 4.2 nM and the Kd [22] was 10.5 nM. VEEEWVIVSDEEIEEARQKAPLEITEY [AnkB LIR (AnkB WT peptide, human 440 kD AnkB residues 1588-1614)]: binds [14].

B3: AnkB W1592R (peptide)
peptide: VEEERVIVSDEEIEEARQKAPLEITEY
notes: also called AnkB WR; Trp1592Arg mutant of AnkB LIR
B3 was tested, and the Kd [23] was over 100000 nM, the Kd [24] was over 100000 nM and the Kd [18] was about 26600 nM. B3: no binding [14]; no binding [25].

Work on VEEEWVIVSDERIEEARQKAPLEITEY (also called AnkB E1599R) [E1599R] yielded a Kd [24] of 38 nM and a Kd [18] of 312 nM.

For PEDDWTEFSSEEIREA [AnkG LIR construct "1985-2000" (aa 2001-2010 truncated)], the Kd [12] was 510 nM, the Kd [3] was 7410 nM and the “fold decrease of binding against AnkG LIR (aa 1985-2010)” value [10] was about 200 fold.

SSEEIREARQAAASHAPS [AnkG LIR C-helix alone (aa 1993-2010)]: no binding [3]; no binding [10].

B4: human FAM134B LIR without the C-helix extension (LIR-S, aa 448-461) (peptide, UniProt Q9H6L5 448-461, looked up)
peptide: DTEEGDDFELLDQS
notes: range 448-461; also called FAM134B LIR-S
With B4 the Kd [26] was 704 nM.
